The results in this text go back to article PMC4537474 (Protein & Cell, 2015).

Data set [1] deals with the molecule itself. The data set is described as follows: SEC; Superdex 75 column on an Akta FPLC, 0.35 mL/min, 20 mmol/L Tris-HCl, 50 mmol/L NaCl, pH 7.9; peak at 10.5 mL, between the 44 kDa and 67 kDa standards. In general terms: SEC sorts molecules by how far they enter the pores of the column.
The target in data set [2] is T1, FadR_she (Shewanella oneidensis, UniProt Q8ED80 1-240). The data set is described as follows: SPR; 2:1 (FadR dimer per DNA); EMSA: Roche binding buffer, 20 min, room temperature, 0.2 pmol DIG probe (10 uL in Fig. 6), 7% native PAGE; SPR: Biacore3000, 20 mM Tris-HCl pH 7.5, 200 mM NaCl. A general note: In SPR one partner is held on a chip, and binding of the other changes the refractive index at the surface.

Data set [3] concerns the target T2, FadR_ec (Escherichia coli (K-12), UniProt P0A8V6 1-239). Kind of data set: EMSA; C10:0-CoA ~50 pmol; EMSA: Roche binding buffer, 20 min, room temperature, 0.2 pmol DIG probe (10 uL in Fig. 6), 7% native PAGE; SPR: Biacore3000, 20 mM Tris-HCl pH 7.5, 200 mM NaCl. On the technique in general: A gel shift assay detects complexes by their altered migration in electrophoresis.

Data set [4] addresses T2, FadR_ec. Kind of data set: EMSA; 5 pmol protein, 0.2 pmol probe; EMSA: Roche binding buffer, 20 min, room temperature, 0.2 pmol DIG probe (10 uL in Fig. 6), 7% native PAGE; SPR: Biacore3000, 20 mM Tris-HCl pH 7.5, 200 mM NaCl.
Data set [5] deals with T1, FadR_she. Described as above.
The target in data set [6] is FadR_vc (Vibrio cholerae, UniProt Q9KQU8 1-279). Kind of data set: EMSA; 5 pmol protein; super-shifted band attributed to multimer; EMSA: Roche binding buffer, 20 min, room temperature, 0.2 pmol DIG probe (10 uL in Fig. 6), 7% native PAGE; SPR: Biacore3000, 20 mM Tris-HCl pH 7.5, 200 mM NaCl.
FadR_vc, sequence (Q9KQU8 whole entry): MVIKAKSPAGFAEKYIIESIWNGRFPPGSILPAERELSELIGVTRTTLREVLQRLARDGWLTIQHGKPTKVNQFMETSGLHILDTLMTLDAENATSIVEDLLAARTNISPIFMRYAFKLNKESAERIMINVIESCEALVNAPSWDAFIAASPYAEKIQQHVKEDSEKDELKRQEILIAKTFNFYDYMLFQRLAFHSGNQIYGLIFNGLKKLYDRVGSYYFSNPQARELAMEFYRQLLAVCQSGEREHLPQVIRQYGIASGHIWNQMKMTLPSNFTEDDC

T2 sequence (P0A8V6 whole entry): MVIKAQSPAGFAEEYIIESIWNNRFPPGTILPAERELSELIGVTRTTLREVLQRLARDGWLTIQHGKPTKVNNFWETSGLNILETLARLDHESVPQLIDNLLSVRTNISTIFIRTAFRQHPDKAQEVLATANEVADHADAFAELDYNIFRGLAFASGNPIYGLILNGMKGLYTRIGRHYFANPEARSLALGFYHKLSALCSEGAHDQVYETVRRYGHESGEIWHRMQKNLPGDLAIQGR

B1: Shewanella oneidensis FadR protein (natural protein, Shewanella oneidensis MR-1, UniProt Q8ED80 1-240, looked up)
chain: MIINAKGPASFAEKYIVRSIWENKFPPGSILPAERELSELIGVTRTTLREVLQRLARDGWLKIQHGKPTRVNNFWETSGLNILETIADLNPEGFPVLVDQLLSARTNVSAIYFRGALRNNPDTAMEVLAQIHQLEDTAESFAEYDYLLHHTLAFSSGNPLYVLILNGFKGLYSRVGRYYFSSSEARQLALNFYKELELLAKAKNYLDVPALMRTYGINSGKMWLQLRDDMPSSIAQQDSH
Take B1: in data set [1], the “stoichiometry N” value was found to be 2.

B2: fabA_she probe, biotinylated (dsDNA)
DNA 1: GACATTAATTAGCTGATCGGAGTTGTTTAGCTTACACGTGTTCGCTAATCTTGGCG
DNA 2: CGCCAAGATTAGCGAACACGTGTAAGCTAAACAACTCCGATCAGCTAATTAATGTC
In the case of B2, the Kd in data set [2] is around 436 nM.

B3: fabA_she probe (dsDNA)
DNA 1: GACATTAATTAGCTGATCGGAGTTGTTTAGCTTACACGTGTTCGCTAATCTTGGCG
DNA 2: CGCCAAGATTAGCGAACACGTGTAAGCTAAACAACTCCGATCAGCTAATTAATGTC
Take B3: the binding result in data set [3] is recorded as “binds”.

B4: fabB_ec probe (dsDNA)
DNA 1: TCTATTAAATGGCTGATCGGACTTGTTCGGCGTACAAGTGTACGCTATTGTGCATTC
DNA 2: GAATGCACAATAGCGTACACTTGTACGCCGAACAAGTCCGATCAGCCATTTAATAGA
Consider B4, for which the binding result in data set [4], in data set [5] and in data set [6] was “binds” in each case.

B5: fabA_ec probe (dsDNA)
DNA 1: TTTATTCCGAACTGATCGGACTTGTTCAGCGTACACGTGTTAGCTATCCTGCGTGC
DNA 2: GCACGCAGGATAGCTAACACGTGTACGCTGAACAAGTCCGATCAGTTCGGAATAAA
As for B5, the binding result in data set [4], in data set [5] and in data set [6] was “binds” in each case.

The term stoichiometry N denotes the number of molecules, sites or subunits per partner or assembly. Broadly, the Kd is the equilibrium constant for the complex coming apart.
